Publication PMC8277577 (Nature, 2021)
Numbering of substitutions follows the chain as printed.

B1: C871 (antibody, V domains shown)
VH: EVQLVESGGGLIQTGGSLKLSCAASGFIVTNNYMSWVRQAPGKGLEWVSVIYSGGTTYYADSVKGRFTISRDISKNTLYLQMNSLKAEDTAVYYCAREGDVEGISDSWSGYSRDRYYFDHWGQGTLVTVSS
VL: QSALTQPASVSGSPGQSITISCTGTSSDVGGYNYVSWYQQHPGKAPKLMIYDVSNRPPTISNRFSGSKSGNTASLIISGLQPEDEADYYCSSFTSNNTRVFGTGTKVTVL
notes: source: recombinant, purified
B2: C108 (antibody, V domains shown)
VH: QVQLQESGPGLVKPSGTLSLTCAVSGGSISSTNWWSWVRQPPGKGLEWIGEIYHTGSTNYNPSLKSRVTISVDKSKNQFSLKLSSVTAADTAVYYCVRDGGRPGDAFDIWGQGTMVTVSS
VL: B1 VL with P58S, T59G, I60V, I76T, P82A, S91N, F93Y, N96S, N97S
notes: source: recombinant, purified
B3: C952 (antibody, V domains shown)
VH: EVQLVQSGAEVKKPGESLTISCKDSGNSFTIYWIGWVRQMPGKGLEWMGMIYPGDSGTRYSPSFEGQVTISADESINTAYLQWRSLKASDTAMYYCVRGIAVDWYFDLWGRGTLVTVSS
VL: QSVLTQPPSVSGAPGQRVTISCTGSSSNIGAGFDVHWYQQLPGTAPKLLIYGNNNRPSGVPDRFSGSKSATSASLAITGLQAEDEADYYCQSSDSSLSGLYVFGTGTNVIV
notes: source: recombinant, purified
B4: C032 (antibody, V domains shown)
VH: EVQLVQSGAEVKKPGESLKISCKGSGYSFTSYWIGWVRQMPGKGLEWMGIIYPGDSDTRYSPSFQGQVTISADKSISTAYLQWSSLKASDTAMYYCARGVAVDWYFDLWGRGTLVTVSS
VL: QSVLTQPPSVSGAPGQRVTISCTGSSSNIGAGYDVHWYQQLPGTAPKLLIYGNSNRPSGVPDRFSGSKSGTSASLAITGLQAEDEADYYCQSYDSSLSALYVFGTGTKVTVL
notes: source: recombinant, purified
B5: C953 (antibody, V domains shown)
VH: QVQLVQSGAEVKKPGSSVKVSCKASGGTFSSYAISWVRQAPGQGLEWMGRIIPILGIANYAQKFQGRVTITADKSTSTAYMELSSLRSEDTAVYYCARDSEYSSSWYSRGYYGMDVWGQGTTVTVSS
VL: not shown
notes: source: recombinant, purified
B6: C929 (antibody, V domains shown)
VH: EVQLVESGGGLIQPGGSLRLSCAASGFTVSSNYMTWVRQAPGKGLEWVSVIYSGGTTYYADSVKGRFTISRDNSKNTLYLQMNSLRAEDTAVYYCARDLVVWGMDVWGQGTTVTVSS
VL: DIQLTQSPSFLSASVGDRVTITCRASQGISSYLAWYQQKPGKAPKLLIYAASTLQSGVPSRFSGSGSGTEFTLTISSLQPEDFATYYCQLLNSYPYTFGQGTKLEIK
notes: source: recombinant, purified
B7: C930 (antibody, V domains shown)
VH: B6 VH with I12F, S21A, F27I, T35S, A40P, S53A, T56S, Y58F, F67L, M82I
VL: B6 VL with L90Q, S93T
notes: source: recombinant, purified
B8: C937 (antibody, V domains shown)
VH: EVQLVESGGGLIQPGGSLRLSCAASELTVSSNYMSWVRQAPGKGLEWVSVIYPGGSTFYADSVKGRFTISRDNSKNTLYLQMNSLRAEDTAVYYCARDLGTGLFDYWGQGTLVTVSS
VL: DIQLTQSPSFLSASVGDRVTITCRASQGISSYLAWYQQKPGKAPKLLIYAASTLQSGVPSRFSGSGSGTEFTLTISSLQPEDFATYFCQLLNSNPPGTFGPGTKVDIK
notes: source: recombinant, purified
B9: C517 (antibody, V domains shown)
VH: EVQLVESGGGLVQPGGSLRLSCAASEFIVSRNYMSWVRQAPGKGLEWVSLIYSGGSTYYADSVKGRFTISRDNSKNTLYLQMNSLRAEDTAMYYCARDIAGRLDYWGQGTLVTVSS
VL: DIQMTQSPSSLSASVGDRVTITCQASQDISKYLNWYQQKPGKAPKLLIYDASNLETGVPSRFSGSGSGTDFTFTISSLQPEDFATYYCQHYDSLSRLTFGGGTKVEIK
notes: source: recombinant, purified
B10: C1002 (antibody, V domains shown)
VH: B9 VH with R31S, S35T, L50I, I51M, S53P, Y58F, M82I, S84R, M92V
VL: B9 VL with S30N, K31N, T72S, F83I, H90Q, S93N
notes: source: recombinant, purified
B11: C960 (antibody, V domains shown)
VH: QVQLVESGGGVVQPGRSLTLSCTASGFTFNRFAMFWVRQAPGKGLEWVAVISFDGSYEHYAESVKGRFAIFRDNPKNTLYLQMNSLRAEDTAVYYCAKSPINYCANGVCYPDSWGQGTLVTVSS
VL: NFMLTQPHSVSESPGKTVTISCTGSSGSIANNYVQWYQQRPGSAPTTVIFEDTQRPSGVPDRFSGSIDSSSNSASLNISGLKPEDEADYYCQSFDVNSRWVFGGGTKLTVL
notes: source: recombinant, purified
B12: C888 (antibody, V domains shown)
VH: EVQLVESGGGLVQPGGSLRLSCAASGFTVSSNYMSWVRQAPGKGLEWVSVIYSGGSAYYADSVKGRFTISRDNSKNTLYLQMNSLRAEDTAVYYCARDLRDQDGYSYGAFDYWGQGTLVTVSS
VL: QSALTQPASVSGSPGQSITISCTGTSSDVGGYNYVSWYQQHPGKAPKLMIYDVSNRPSGVSNRFSGSKSGNTASLTISGLQAEDEADYYCSSYTSSSSWVFGGGTKLTVL
notes: source: recombinant, purified
B13: C1008 (antibody, V domains shown)
VH: EVQLVESGGGLIQPGGSLRLSCAASGFTVSSNYMSWVRQAPGKGLEWVSVIYSGGSTYYADSVKGRFTISRDNSKNTLYLQMNSLRAEDTAVYYCARVVGYDFWSGYDGGYFDYWGQGTLVTVSS
VL: B12 VL with G31S, Y34L, D52E, N55K, S91C, T94A, S95G, S98T
notes: source: recombinant, purified
B14: C1009 (antibody, V domains shown)
VH: EVQLVESGGGLLQPGGSLRLSCAASGFSVSSNYMTWVRQAPGKGLEWVAAIYSGDSTYYVDSVKGRFIISRDNSKNTVYLHLSSLRAEDTAVYYCARLVGYDFRSGSDGGYFDYWGHGTLVTVSS
VL: B12 VL with V29I, G31N, Y34L, N55K, A86T, S91C, T94A, S95G, S98T
notes: source: recombinant, purified
B15: C153 (antibody, V domains shown)
VH: EVQLVESGGGLIQPGGSLRLSCAASGFTVSSNYMSWVRQAPGKGLEWVSVIYSGYSTYYVDSVKGRFTISRDNSKNTLYLQMNSLRAEDTAVYYCARVGGAHSGYDGSFDYWGQGTLVTVSS
VL: B12 VL with G31S, Y34L, D52E, V53G, N55K, S91C, T94A, S95G, S98T
notes: source: recombinant, purified
B16: C840 (antibody, V domains shown)
VH: QVQLVESGGGVVQPGRSLRLSCEASGFTFTAYAMHWLRQAPGKGLEWVAVILNDGSNKLYADSVKGRFTVSRDNSKNMLYLQVNSLRVDDTAVYYCARDGSVDTLMVTWFDYWGQGTLVTVSS
VL: DIQMTQSPSSLSASVGDRVTITCRASQSVNNYLNWYQQKPGQAPKLLIYAASSLQSGVPLRFSGSGSGTDFALTITSLHTEDFATYYCQQSYNTPPWTFGPGTKVEIK
notes: source: recombinant, purified
B17: C881 (antibody, V domains shown)
VH: EVQLVESGGGLIQPGGSLRLSCAVSGVAVSTNYMSWVRQAPGQGLEWVSTIYSGDTTYYSDSVKGRFTISRDNSKNTFYLQMNSLRVPDTAVYYCARLGGVFNGFNGSFDYWGQGTLVTVS
VL: QSALTQPASVSGSPGQSITISCIGTSSDFENYNLVSWYQQHPGKAPKVMIYEDTKRPSGVSNRFSGSKSANTASLTISGLQAEDEAEYYCCSYAGASTWVFGGGTRVTVV
notes: source: recombinant, purified
B18: C954 (antibody, V domains shown)
VH: QVQLVQSGAEVKKPGSSVKVSCKASGDTFTNYAFSWMRQAPGQGLEWMGRIIPILGIVKYSQKFQDRVRISADKSTSTAYMDLSSLRSEDTAMYYCARDSEFSTSWFSRGYHGMDVWGQGTTVTVSS
VL: DIVMTQSPLSLPVTPGEPASISCRSSQSLLHGDGYNYLDWYLQKPGQSPHLLIYLGSNRTSGVSDRFSGSGSGTDFTLKISRVEAEDVGVYYCMQALQTPPTFGGGTKVEIK
notes: source: recombinant, purified
B19: C934 (antibody, V domains shown)
VH: QVQLVQSGAEVKKPGASVKVSCKASGYTFTDYYIHWVRQAPGQGLEWMGWINPNSGGTNYAQKFQGRVTMTRDTSISTAYMDLSRLRSDDTAVYYCARDVIITMGRGVVFRMDVWGQGTTVTVSS
VL: not shown
notes: source: recombinant, purified
B20: C951 (antibody, V domains shown)
VH: B2 VH with G10R, S31T, Y53H, T55S, S57N, K74R, Y95F, V97A, A106P
VL: QSALTQPASVSGSPGQSITISCTGTSSDVGGYNYVSWYQQHPGKAPNLMIYDVSDRPSGVSNRFSGSKSGNTASLTISGLQAEDEADYYCNSFTSNSTRVFGTGTKVTV
notes: source: recombinant, purified
B21: C581 (antibody, V domains shown)
VH: EVQLVQSGAEVKKPGESLKISCKGSGYRFTSYWIAWVRQMPGKGLEWMGIIYPGDSDTRYSPSFQGQVTISADQSISTAYLQWSSLKASDTAMYYCARGGPPGGVKLELTDYWGQGALVTVSS
VL: not shown
notes: source: recombinant, purified
B22: C908 (antibody, V domains shown)
VH: B21 VH with G24A, R28S, S31I, A35G, D55E, D57E, Q74K, S84R, A117T
VL: not shown
notes: source: recombinant, purified
B23: C889 (antibody, V domains shown)
VH: EVQLVESGGGLVQPGGSLRLSCAVSGFTVSSNYMTWVRQAPGKGLEWVSLIYSGTSAFYADSVKGRFTISRDNSKNTLYLQMSSLRVNDTAIYYCARDLRKDDGYSYGAFDYWGQGTLVTVSS
VL: QSALTQPASVSGSPGQSITISCSGTSSDVGAHNYVSWYQQYPGKAPKLMIFDVTDRPSGVSNRFSGSKSGNTASLTISGLQAEDEADYYCTSYTTNRSWVFGGGTKVTVL
notes: source: recombinant, purified
B24: C010 (antibody, V domains shown)
VH: EVQLVESGGGVVQPGRSLRLSCAASGFTFSSYAMHWVRQAPAKGLEWVAVILYDGSGKYYADSVKGRFTISRDNSKNTLYLQMNSLRAEDTAVYYCARDGIVDTALVTWFDYWGQGTLVTVSS
VL: not shown
notes: source: recombinant, purified
B25: C1003 (antibody, V domains shown)
VH: QVQLVESGGGVVQPGRSLRLSCAASGFAFSSYGMNWVRQAPGKGLEWVTTVSSDGNVNYYIDSVKGRFTISRDNSKNTLYLQMNSLRGDDTAVYYCAKGPRFGWSYRGGSGFDIWGQGTMVTVSS
VL: DIQMTQSPSSLSASVGDRVTITCQASQDISNYLNWYQQKPGKAPKLLIYDASNLETGVPSRFSGSGSGTDFTFTITSLQPEDIATYYCQQYDNLPITFGQGTRLEIK
notes: source: recombinant, purified

Target: SARS-CoV-2 receptor binding domain (RBD) (SARS-CoV-2, GenBank MN985325.1 …, UniProt P0DTC2)
Experiment: BLI
Conditions: both partners purified

Binder | Kd
B1 | 2.76 nM
B2 | 21.5 nM
B3 | 0.587 nM
B4 | 32.1 nM
B5 | 620 nM
B6 | 0.791 nM
B7 | 0.318 nM
B8 | 4.4 nM
B9 | 28.8 nM
B10 | 0.00513 nM
B11 | 1.5 nM
B12 | 7240 nM
B13 | 208 nM
B14 | 4.79 nM
B15 | 1380 nM
B16 | 1.87 nM
B17 | 1.95 nM
B18 | 1.47 nM
B19 | 10.8 nM
B20 | 3.34 nM
B21 | 0.0725 nM
B22 | 0.00384 nM
B23 | 2.46 nM
B24 | 35.1 nM
B25 | 11.5 nM
